Changes are numbered by the printed parent chain.

In general, Kd refers to the constant that tells how readily two partners part at equilibrium. A low value points to tighter binding. One may read the koff as the first-order rate constant of dissociation. A word on the kon: it is the rate constant with which the complex forms. Lower therefore signals slower complex formation. Broadly, the t½ is the time needed for the level to fall by half in the phase considered. Read a low t½ as rapid decline.

The labels stand for the following.
T1: Ebola virus GP, Sudan strain, on VLPs (Ebola virus, Sudan strain, UniProt Q7T9D9 33-676)
T1 construct: also called Sudan NC_006432
T1 sequence: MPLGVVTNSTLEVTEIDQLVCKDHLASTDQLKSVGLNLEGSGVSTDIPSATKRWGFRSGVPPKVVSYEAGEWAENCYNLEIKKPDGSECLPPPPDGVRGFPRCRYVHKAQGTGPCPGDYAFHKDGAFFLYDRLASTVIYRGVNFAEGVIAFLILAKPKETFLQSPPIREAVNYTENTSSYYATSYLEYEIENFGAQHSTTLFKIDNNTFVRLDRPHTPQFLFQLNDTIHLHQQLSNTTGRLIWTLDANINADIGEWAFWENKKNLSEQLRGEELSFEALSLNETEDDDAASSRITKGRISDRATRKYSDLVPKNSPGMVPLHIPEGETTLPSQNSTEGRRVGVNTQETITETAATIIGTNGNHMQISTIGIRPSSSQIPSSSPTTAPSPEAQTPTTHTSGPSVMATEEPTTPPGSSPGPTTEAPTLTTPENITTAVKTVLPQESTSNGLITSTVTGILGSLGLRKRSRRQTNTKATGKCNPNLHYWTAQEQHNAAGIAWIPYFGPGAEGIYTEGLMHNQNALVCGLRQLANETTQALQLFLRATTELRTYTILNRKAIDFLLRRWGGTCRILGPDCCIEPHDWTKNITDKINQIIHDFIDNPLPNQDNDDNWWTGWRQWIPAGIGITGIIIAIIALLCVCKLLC

T2: Ebola virus GP, Cote d'Ivoire strain, on VLPs (Ebola virus, Cote d'Ivoire strain, UniProt Q66810 33-676)
T2 construct: also called Cote d'Ivoire FJ217162; Ivory Coast
T2 sequence: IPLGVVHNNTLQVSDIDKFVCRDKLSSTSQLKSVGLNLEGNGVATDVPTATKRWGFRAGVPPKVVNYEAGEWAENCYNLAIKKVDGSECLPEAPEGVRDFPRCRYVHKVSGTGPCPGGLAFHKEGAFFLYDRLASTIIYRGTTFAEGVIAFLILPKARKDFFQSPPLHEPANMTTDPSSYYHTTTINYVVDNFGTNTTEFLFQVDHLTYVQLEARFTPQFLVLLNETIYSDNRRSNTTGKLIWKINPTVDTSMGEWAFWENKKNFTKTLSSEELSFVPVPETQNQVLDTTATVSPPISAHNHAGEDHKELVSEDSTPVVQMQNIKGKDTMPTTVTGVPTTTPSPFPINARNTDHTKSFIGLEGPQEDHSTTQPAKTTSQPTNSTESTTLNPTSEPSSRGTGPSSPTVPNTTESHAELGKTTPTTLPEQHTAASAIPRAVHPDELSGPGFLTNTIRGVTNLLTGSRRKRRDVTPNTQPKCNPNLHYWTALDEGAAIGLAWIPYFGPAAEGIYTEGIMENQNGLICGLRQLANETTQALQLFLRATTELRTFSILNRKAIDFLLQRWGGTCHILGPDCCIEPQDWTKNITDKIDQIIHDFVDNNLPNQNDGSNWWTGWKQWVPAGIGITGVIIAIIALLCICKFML

T3: hCNTFR.mmh (ciliary neurotrophic factor receptor.mmh) (human (printed as hCNTFR), UniProt P26992 23-342)
T3 construct: also called negative control protein; not shown: mmh (myc-myc-hexahistidine) tag
T3 sequence: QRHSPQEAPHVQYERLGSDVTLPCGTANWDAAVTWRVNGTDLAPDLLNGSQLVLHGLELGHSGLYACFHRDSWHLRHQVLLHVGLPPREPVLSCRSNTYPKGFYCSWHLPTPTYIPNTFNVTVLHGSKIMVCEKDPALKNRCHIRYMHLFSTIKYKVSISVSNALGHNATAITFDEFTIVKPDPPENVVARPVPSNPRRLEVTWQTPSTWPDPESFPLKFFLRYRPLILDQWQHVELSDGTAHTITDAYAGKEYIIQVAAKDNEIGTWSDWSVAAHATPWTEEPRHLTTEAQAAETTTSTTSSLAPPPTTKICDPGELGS

B1: H1H17219P (antibody, V domains shown)
VH: QVQLQQSGPGLVKPSQTLSLTCAISGDSVSSNIPAWNWIRQSPSRGLEWLGRTYYRSKWYNDYAVSVKSRITINPDTSKNHFSLQLNSVTPEDTAVYYCARGRVYDRSSRYFYAMDVWGQGTTVTVSS
VL: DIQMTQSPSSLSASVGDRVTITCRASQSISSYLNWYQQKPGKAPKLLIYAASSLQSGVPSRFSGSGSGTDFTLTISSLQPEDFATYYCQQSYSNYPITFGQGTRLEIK
B2: H1H17214P (antibody, V domains shown)
VH: EVQLVESGGGLVQPGGSLRLSCAASKFTFDTFAMSWVRQAPGKGLEWVSFISSSGGRTDYVDSVKGRFTISRDNSKNTLYLQMNSLRAEDTAVYYCAKERTIFGVLILGPDNYGMDVWGQGTTVTVSS
VL: DIQMTQSPSSLSAFVGDRVTITCRASQSISTYLNWYQQKPGKAPKLLIYAASSLQSGVSSRFSGSGSGTDFTLTISSLQPEDFATYYCQQSYSAPPITFGQGTRLEIK
B3: H1H17203P (antibody, V domains shown)
VH: QVQLVESGGGVVQPGRSLRLSCAASGFTFNNYGMHWVRQAPGMGLEWVAVIWHDGSDKYYADSVKGRFTISRDNSKNTLYLQMNSLRAEDTAVYYCARNWNLFDYWGQGTLVTVSS
VL: B2 VL with F14S, V19I, N34H, S53T, S59P, Y92F, A94T, T98N, R104K
B4: H1H17223P (antibody, V domains shown)
VH: EVQLVESGGGLVQPGGSLRLSCAASGFTFRTYDMHWVRQATGKGLEWVSAIGTAGDTYYPGSVKGRFTISRENAKNSLYLQMNSLRAGDTAVYYCARTIFGVVLTFDYWGQGTLVTVSS
VL: B2 VL with F14S, T31S, Y32S, Q55H, S59P, S91T, A94I, I97T, R104K, L105V
B5: H1M17357N (antibody, V domains shown)
VH: QVQLVQSGAEVKKPGASVKVSCKASGYTFTSYYMHWVRQAPGQGLEWMGIINPSGGSTSYAQKFQGRVTMTRDTSTSTVYMELSSLRSEDTAVYYCAREIGEAGEVFNYWGQGTLVTVSS
VL: B2 VL with F14S, T31R, Q38H, L46V, S53I, S59P, A94T
notes: also called HCAF09D11-13
B6: H1H17139P (antibody, V domains shown)
VH: EVQLVESGGGLVQPGGSLRLSCAASGFTFSSYDMHWVRQATGKGLEWVSAIGTAGDTYYPGSVKGRFTISRENAKNSLYLQMNSLRAGDTAVYYCARTWFGELYFDYWGQGTLVTVSS
VL: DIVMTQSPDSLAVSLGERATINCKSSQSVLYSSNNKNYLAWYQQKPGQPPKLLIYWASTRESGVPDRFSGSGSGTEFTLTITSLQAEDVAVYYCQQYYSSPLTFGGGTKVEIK
B7: H1H17228P (antibody, V domains shown)
VH: EVQLVESGGGLVQPGGSLRLSCAASGFTFSNYAMIWVRQAPGKGLEWVSGISGSGGSIYYADSVKGRFTISRDNSKNTLYLQMNSLRAEDTAVYYCAKEGIISMVRGLINYYHGMDVWGQGTTVTVSS
VL: not shown
B8: H1H17358N2 (antibody, V domains shown)
VH: EVQLVESGGGLVQPGGSLRLSCAASGFTFSTYEMNWVRQAPGKGLEWVSYSSSSGRTIYYADSVKGRFTISRDNAKNSLFLQMNSLRAEDTAVYYCARPSSIETLLRNQYHYGVDVWGQGTTVTVSS
VL: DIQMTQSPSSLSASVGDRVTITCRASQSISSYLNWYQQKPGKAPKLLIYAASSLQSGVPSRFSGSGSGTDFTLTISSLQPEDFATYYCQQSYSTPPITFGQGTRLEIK

The target in one assay is T4, Ebola virus GP with a C-terminal polyhistidine tag (Sino Biologicals, Catalog #40442-V08B1) (Ebola virus, UniProt P87666 33-650).
T4 construct: also called EbolaGP.his; Ebola virus GP.his
Kind of assay: SPR 37C, mAb captured.
Molecule B1 came in with a Kd of 0.227 nM, a koff not above 1e-05 s⁻¹, a kon of 44100 M⁻¹ s⁻¹ and a t½ not below 1160 min.

B2 displayed a Kd of 4.2 nM, a koff of 0.000154 s⁻¹, a kon of 36700 M⁻¹ s⁻¹ and a t½ of 74.9 min.

As to B3, the Kd was 30.9 nM, the koff came out at 0.00119 s⁻¹, the kon was found to be 38500 M⁻¹ s⁻¹ and the t½ stood at 9.7 min.

B4 had a Kd of 6.89 nM, a koff of 0.000242 s⁻¹, a kon of 35100 M⁻¹ s⁻¹ and a t½ of 47.7 min.

In the case of B5, the Kd worked out at 78.1 nM, the koff was 0.00184 s⁻¹, the kon was determined as 23500 M⁻¹ s⁻¹ and the t½ was 6.3 min.

B6 registered a Kd of 20.6 nM, a koff of 0.000512 s⁻¹, a kon of 24800 M⁻¹ s⁻¹ and a t½ of 22.5 min.

As to B7, the Kd was 52.3 nM, the koff came out at 0.00383 s⁻¹, the kon is 73200 M⁻¹ s⁻¹ and the t½ amounted to 3 min.

The target of a further assay is T1, Ebola virus GP, Sudan strain, on VLPs. Nature of the assay: MSD, VLPs coated.
Regarding B1, the binding result was “no binding”.

With B8, the binding result is recorded as “no binding”.

Consider B2, for which the binding result was “no binding”.

For B3, the binding result is on record as “no binding”.

In the case of B4, the binding result is reported as “no binding”.

On to B5, for which the binding result is “no binding”.

On to B6, for which the binding result is “no binding”.

Regarding B7, the binding result was “no binding”.

The target of a further assay is T2, Ebola virus GP, Cote d'Ivoire strain, …. Nature of the assay: MSD, VLPs coated.
On to B1, for which the binding result was “no binding”.

As for B8, the binding result is given as “no binding”.

Consider B2, for which the binding result is listed as “no binding”.

Regarding B3, the binding result is given as “no binding”.

With B4, the binding result is recorded as “no binding”.

As for B5, the binding result is given as “no binding”.

With B6, the binding result is “no binding”.

B7: the binding result is “no binding”.

For the next assay, the target named is T3, hCNTFR.mmh (ciliary neurotrophic factor …). Kind of assay: BLI, mAb captured, 25C. (Biolayer interferometry detects binding as a change in optical thickness at a sensor tip.)
As to B1, the binding result is on record as “no binding (tested: below 0.10 nm at 300 nM)”.

On to B8, for which the binding result was “no binding (tested: below 0.10 nm at 300 nM)”.

On to B2, for which the binding result is reported as “no binding (tested: below 0.10 nm at 300 nM)”.

For B3, the binding result was “no binding (tested: below 0.10 nm at 300 nM)”.

Regarding B4, the binding result was “no binding (tested: below 0.10 nm at 300 nM)”.

Turning to B5, the binding result is “no binding (tested: below 0.10 nm at 300 nM)”.

Regarding B6, the binding result is reported as “no binding (tested: below 0.10 nm at 300 nM)”.

Take B7: the binding result is “no binding (tested: below 0.10 nm at 300 nM)”.

The target in a further assay is T4, Ebola virus GP with a C-terminal …. Nature of the assay: SPR 37C, mAb captured, pH chase.
With B1, the “t½ ratio pH 7.4/pH 5.0” value came to 1 and the “t½ ratio pH 7.4/pH 6.0” value amounted to 1.

As for B2, the “t½ ratio pH 7.4/pH 5.0” value was 1 and the “t½ ratio pH 7.4/pH 6.0” value came to 1.

With B3, the “t½ ratio pH 7.4/pH 5.0” value worked out at 0.1 and the “t½ ratio pH 7.4/pH 6.0” value amounted to 0.2.

In the case of B4, the “t½ ratio pH 7.4/pH 5.0” value amounted to 0.4 and the “t½ ratio pH 7.4/pH 6.0” value worked out at 0.4.

B5: the “t½ ratio pH 7.4/pH 5.0” value is 0.5 and the “t½ ratio pH 7.4/pH 6.0” value came to 0.8.

As to B6, the “t½ ratio pH 7.4/pH 5.0” value turned out to be 0.2 and the “t½ ratio pH 7.4/pH 6.0” value came out at 0.2.

For the molecule B7, the “t½ ratio pH 7.4/pH 5.0” value was 0.5 and the “t½ ratio pH 7.4/pH 6.0” value was determined as 0.6.

For another assay the target is unchanged. Nature of the assay: SPR 25C, mAb captured.
B1 returned a Kd of 0.934 nM, a koff of 2.9e-05 s⁻¹, a kon of 31100 M⁻¹ s⁻¹ and a t½ of 398 min.

With B2, the Kd was not above 0.266 nM, the koff was not above 1e-05 s⁻¹, the kon came out at 37600 M⁻¹ s⁻¹ and the t½ is not below 1160 min.

B3: the Kd was found to be 6.04 nM, the koff worked out at 0.000168 s⁻¹, the kon amounted to 27800 M⁻¹ s⁻¹ and the t½ was determined as 68.7 min.

As to B4, the Kd amounted to 2.03 nM, the koff amounted to 6.08e-05 s⁻¹, the kon worked out at 30000 M⁻¹ s⁻¹ and the t½ was 190 min.

In the case of B6, the Kd turned out to be 7.13 nM, the off-rate constant (koff) stood at 0.000163 s⁻¹, the kon came out at 22900 M⁻¹ s⁻¹ and the t½ turned out to be 70.8 min.

In turn, B7 registered a Kd of 37.6 nM, a koff of 0.00169 s⁻¹, a kon of 44900 M⁻¹ s⁻¹ and a t½ of 6.9 min.

The values above are taken from US20160215040A1 (Regeneron, published 2016).
